US5492822A, “Method for recovering purified 100,000 dalton molecular weight fraction of human pancreatic cholesterol esterase” (Lange, III; Louis G., priority 1995, dated 1996)

Columns and labels:
[1] = test system: intestinal cells (colonic adenocarcinoma cells CaCo-2); assay: Cellular uptake of 3H-cholesterol from 3H-cholesterol oleate; format: cell-based; conditions: 5 nM human pancreatic cholesterol esterase (100 K), 1.5 mM taurocholate, no heparin
Experimental: For example, intestinal cells (colonic adenocarcinoma cells CaCo-2, American Type Cell Culture) were grown in T150 flasks in medium consisting of DME, 10% v/v fetal bovine serum, 50 ug/ml gentamicin and 2 mM sodium pyruvate. Uptake experiments were conducted using 10^5 intestinal cells in PBS buffer containing 5 mM CaCl2, pH 7.4 in the presence of 5 uM ^3 H-cholesterol oleate (SRA=50 dpm/pmol) embedded in phosphatidylcholine vesicles along with 10% v/v lipoprotein-depleted serum and 1.5 mM taurocholate. At time zero, 5 nM human pancreatic cholesterol esterase (100 K, homogeneous) was added to one set of flasks, an equivalent volume of buffer to another set, and 1 mg/ml final concentration bulk heparin together with 5 nM enzyme to a third set. At selected times, i.e., 0, 15, 30, 60, 120 and 480 min, medium was removed and the cells were washed with medium to allow quantitation of ^3 H-cholesterol uptake. In the absence of enzyme, cellular uptake of ^3 H-cholesterol was linear and occurred at a rate of 400 dpm/hr/10^5 cells. In the presence of cholesterol esterase, the rate of ^3 H-cholesterol uptake was 1,800 dpm/hr/10^5 cells.

[2] = biological target: T1, human pancreatic cholesterol esterase (Homo sapiens, UniProt P19835); assay: Binding of 125I-cholesterol esterase to small intestine vesicles and its displacement; conditions: specific binding, 15 min at 37°, 10 mM Tris-Cl pH 7.2; read-out: KD of cholesterol esterase binding to small intestine vesicles (Scatchard analysis)
T1 construct: from tissue; host or cells: human pancreas (autopsy)
T1 sequence (P19835 21-753): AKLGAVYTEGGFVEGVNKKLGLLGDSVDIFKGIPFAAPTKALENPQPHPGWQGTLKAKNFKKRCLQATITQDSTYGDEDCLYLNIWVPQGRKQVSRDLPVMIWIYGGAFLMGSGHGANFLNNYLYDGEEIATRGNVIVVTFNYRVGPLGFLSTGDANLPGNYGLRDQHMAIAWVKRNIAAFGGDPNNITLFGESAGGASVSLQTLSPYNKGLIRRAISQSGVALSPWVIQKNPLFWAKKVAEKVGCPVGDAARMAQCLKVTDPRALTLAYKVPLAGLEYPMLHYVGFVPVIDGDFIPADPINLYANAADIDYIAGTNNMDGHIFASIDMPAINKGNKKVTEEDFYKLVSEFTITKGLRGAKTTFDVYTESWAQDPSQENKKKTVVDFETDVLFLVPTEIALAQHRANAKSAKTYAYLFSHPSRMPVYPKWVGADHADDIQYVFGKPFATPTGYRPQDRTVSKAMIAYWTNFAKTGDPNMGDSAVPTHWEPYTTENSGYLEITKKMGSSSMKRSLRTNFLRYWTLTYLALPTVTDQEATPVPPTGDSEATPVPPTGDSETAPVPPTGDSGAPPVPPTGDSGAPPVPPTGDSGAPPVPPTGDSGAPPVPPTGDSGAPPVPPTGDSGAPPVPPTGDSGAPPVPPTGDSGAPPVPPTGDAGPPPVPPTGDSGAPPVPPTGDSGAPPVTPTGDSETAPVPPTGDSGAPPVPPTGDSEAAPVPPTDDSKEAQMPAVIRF
Experimental: (§1) Vesicles contained 1.0 mg protein/ml, 30 ug total cholesterol/mg protein and 50 ug endogenous heparin/mg protein. ^125 I-cholesterol esterase (100K or 67K form) was added (0 to 400 pmol; 2,000 dpm/pmol) to 100 ug of protein of small intestine vesicles in 10 mM Tris-Cl, pH 7.2 for 15 min. at 37°. The concentration of offered ^125 I-cholesterol esterase varied between 10 nM and 1 uM. Experiments were performed utilizing 1% blotto to decrease nonspecific protein binding to the vesicles. After the 15 minute incubation at 37°, the reaction was quenched and the assay mixtures were filtered through wells of a Millipore system containing 0.2 micron pore filters presoaked in buffer. The filtrate was-collected to assess free (unbound) enzyme, and the filters were then immediately washed with 15 ml of cold buffer and counted for ^125 I. Total binding was defined as ^125 I-dpm bound to filter paper minus ^125 I-dpm detected in the same reaction without vesicles (background). Nonspecific binding (radioactivity bound to the vesicles in the presence of excess cold ligand) was quantitated as the amount of ^125 I-cholesterol esterase binding in the presence of a 1000-fold molar excess of unlabeled cholesterol esterase as described above. Specific binding is defined as the difference between total bound dpm and nonspecific-bound dpm (converted to moles bound by dividing by the SRA).

[3] = test system: human pancreatic cholesterol esterase; assay: as above; conditions: in the presence of 5 mM taurocholate
Experimental: as §1

[4] = Cleavage of cholesterol oleate, 100 kDa enzyme compared with 52 kDa triglyceride lipase; format: biochemical, human
Excerpt: (§2) Human pancreatic cholesterol esterase (100 kDa) and human pancreatic triglyceride lipase (52 kDa) were purified to homogeneity (Examples 1 and 3), and their abilities to cleave triglycerides and cholesteryl esters were compared. […] Virtually the same results were found with cholesteryl esters; the 100 kDa enzyme cleaved cholesterol oleate at a rate at least 490-fold greater than that found for the 52 kDa triglyceride lipase.

[5] = biological target: T2, human pancreatic cholesterol esterase (100 kDa) (Homo sapiens, UniProt P19835); assay: Triolein hydrolysis by human pancreatic cholesterol esterase (100 kDa); format: biochemical; conditions: purified 100 kDa esterase, in the presence of 5 mM taurocholate
T2 construct: from tissue; host or cells: human pancreas (autopsy)
T2 sequence (P19835 21-753): T1 sequence (P19835 21-753)
Excerpt: as §2

B1: Human pancreatic cholesterol esterase (100K form): 100,000 molecular weight form of human pancreatic cholesterol esterase purified over heparin agarose (protein, UniProt P19835 21-753, looked up)
Bile salt-activated lipase: T1 sequence (P19835 21-753)
Q: With B1 as the molecule, how does the “rate of 3H-cholesterol uptake” value [1] read?
A: 1,800 dpm/hr/10^5 cells

Q: And the Kd [2]?
A: 100 nM

Q: And the “specific binding to vesicles retained” value [3]?
A: 72%

Q: And the “rate of cholesterol oleate cleavage relative to the 52 kDa triglyceride lipase” value [4]?
A: at least 490 fold

Q: And the “rate of triolein hydrolysis” value [5]?
A: 1,970 nmol/hr/g pancreas
